Data as given in PMC7556864, “The NTP generating activity of pyruvate kinase II is critical for apicoplast maintenance in Plasmodium falciparum” (eLife, 2020).

How the values were obtained:
[1] = target: T1, PyrKII (P. falciparum pyruvate kinase II; His-PyrKII) (Plasmodium falciparum, UniProt Q8IJ37); assay: LDH-coupled spectrophotometric assay, NADH oxidation at […] nm; type: biochemical; conditions: 3 mM ADP, PEP 0-20 mM, 10 mM MgCl2, 50 mM KCl, 26.5 mM Tris-HCl pH 7.5
T1 construct: gene PF3D7_1037100; residues 42-745 (predicted mature protein, apicoplast trafficking peptide removed); synthetic codon-harmonized gene; MBP-TEV-His6 fusion from E. coli BL21 Star (DE3), MBP cut by TEV, N-terminal His6 kept; 83,014 Da
T1 sequence (Q8IJ37 42-745): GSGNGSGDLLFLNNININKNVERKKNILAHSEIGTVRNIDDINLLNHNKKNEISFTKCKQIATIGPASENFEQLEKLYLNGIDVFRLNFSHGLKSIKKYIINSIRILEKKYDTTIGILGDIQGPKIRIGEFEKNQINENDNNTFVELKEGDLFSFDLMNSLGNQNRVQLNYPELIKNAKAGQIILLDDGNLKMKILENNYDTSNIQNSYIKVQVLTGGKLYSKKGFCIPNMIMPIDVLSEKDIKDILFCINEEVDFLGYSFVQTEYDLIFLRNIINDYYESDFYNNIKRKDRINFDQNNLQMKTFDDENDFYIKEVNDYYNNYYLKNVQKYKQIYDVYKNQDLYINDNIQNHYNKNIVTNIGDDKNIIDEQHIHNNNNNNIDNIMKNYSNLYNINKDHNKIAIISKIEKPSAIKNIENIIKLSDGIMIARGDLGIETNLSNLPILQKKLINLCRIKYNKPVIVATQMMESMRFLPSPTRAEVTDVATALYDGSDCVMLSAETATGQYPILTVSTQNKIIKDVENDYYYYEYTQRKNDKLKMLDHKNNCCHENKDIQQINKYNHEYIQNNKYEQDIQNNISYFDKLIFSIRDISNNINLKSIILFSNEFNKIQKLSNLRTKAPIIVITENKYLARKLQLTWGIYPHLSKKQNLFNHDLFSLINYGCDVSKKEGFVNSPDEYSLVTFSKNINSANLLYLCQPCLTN

[2] = substrate: Nc1ccn([C@@H]2O[C@H](COP(=O)(O)OP(=O)(O)O)[C@@H](O)[C@H]2O)c(=O)n1; assay: purified protein; type: biochemical, Plasmodium falciparum; conditions: 5 mM PEP, 10 mM MgCl2, 50 mM KCl, 26.5 mM Tris-HCl pH 7.5
[3] = substrate: Nc1nc2c(ncn2[C@@H]2O[C@H](COP(=O)(O)OP(=O)(O)O)[C@@H](O)[C@H]2O)c(=O)[nH]1; assay: purified protein; type: biochemical, Plasmodium falciparum; conditions: 5 mM PEP, 10 mM MgCl2, 50 mM KCl, 26.5 mM Tris-HCl pH 7.5
[4] = substrate: Nc1ncnc2c1ncn2[C@H]1C[C@H](O)[C@@H](COP(=O)(O)OP(=O)(O)O)O1; assay: purified protein; type: biochemical, Plasmodium falciparum; conditions: 5 mM PEP, 10 mM MgCl2, 50 mM KCl, 26.5 mM Tris-HCl pH 7.5
[5] = substrate: O=c1ccn([C@@H]2O[C@H](COP(=O)(O)OP(=O)(O)O)[C@@H](O)[C@H]2O)c(=O)[nH]1; assay: purified protein; type: biochemical, Plasmodium falciparum; conditions: 5 mM PEP, 10 mM MgCl2, 50 mM KCl, 26.5 mM Tris-HCl pH 7.5
[6] = substrate: Nc1ncnc2c1ncn2[C@@H]1O[C@H](COP(=O)(O)OP(=O)(O)O)[C@@H](O)[C@H]1O; assay: purified protein; type: biochemical, Plasmodium falciparum; conditions: 5 mM PEP, 10 mM MgCl2, 50 mM KCl, 26.5 mM Tris-HCl pH 7.5
[7] = substrate: Nc1nc2c(ncn2[C@H]2C[C@H](O)[C@@H](CO[P@](=O)(O)OP(=O)(O)O)O2)c(=O)[nH]1; assay: purified protein; type: biochemical, Plasmodium falciparum; conditions: 5 mM PEP, 10 mM MgCl2, 50 mM KCl, 26.5 mM Tris-HCl pH 7.5
[8] = substrate: Nc1ccn([C@H]2C[C@H](O)[C@@H](COP(=O)(O)OP(=O)(O)O)O2)c(=O)n1; assay: purified protein; type: biochemical, Plasmodium falciparum; conditions: 5 mM PEP, 10 mM MgCl2, 50 mM KCl, 26.5 mM Tris-HCl pH 7.5

C=C(OP(=O)(O)O)C(=O)O [PEP]
Km [1]: 0.64+ / - 0.05 mM

B1: PyrKII (P. falciparum pyruvate kinase II; His-PyrKII) (Plasmodium falciparum 3D7) (protein)
chain: T1 sequence (Q8IJ37 42-745)
notes: residues 42-745 (predicted mature protein, apicoplast trafficking peptide removed); synthetic codon-harmonized gene; MBP-TEV-His6 fusion from E. coli BL21 Star (DE3), MBP cut by TEV, N-terminal His6 kept; 83,014 Da
kcat [2]: 7.3 ± 1.15 s⁻¹ | kcat/Km [2]: 7200 M⁻¹ s⁻¹ | kcat [3]: 6.62 ± 0.75 s⁻¹ | kcat/Km [3]: 98200 M⁻¹ s⁻¹ | kcat [4]: 6.68 ± 0.517 s⁻¹ | kcat/Km [4]: 17800 M⁻¹ s⁻¹ | kcat [5]: 4.2 ± 0.667 s⁻¹ | kcat/Km [5]: 5100 M⁻¹ s⁻¹ | kcat [6]: 13.2 ± 3.1 s⁻¹ | kcat/Km [6]: 53300 M⁻¹ s⁻¹ | kcat [7]: 1.5 ± 0.0833 s⁻¹ | kcat/Km [7]: 5300 M⁻¹ s⁻¹ | kcat [8]: 1.3 ± 0.05 s⁻¹ | kcat/Km [8]: 2480 M⁻¹ s⁻¹
